# In PMC4475061 (2015):
# B1: CHMP1B WT fused to the Gal4 DNA-binding domain [human] / CHMP1A (positive-control partner of the Gal4-CHMP1B constructs in the two-hybrid assay) [human] (parent complex)
# chain 1: MEKHLFNLKFAAKELSRSAKKCDKEEKAEKAKIKKAIQKGNMEVARIHAENAIRQKNQAVNFLRMSARVDAVAARVQTAVTMGKVTKSMAGVVKSMDATLKTMNLEKISALMDKFEHQFETLDVQTQQMEDTMSSTTTLTTPQNQVDMLLQEMADEAGLDLNMELPQGQTGSVGTSVASAEQDELSQRLARLRDQV
# chain 2: MDDTLFQLKFTAKQLEKLAKKAEKDSKAEQAKVKKALLQKNVECARVYAENAIRKKNEGVNWLRMASRVDAVASKVQTAVTMKGVTKNMAQVTKALDKALSTMDLQKVSSVMDRFEQQVQNLDVHTSVMEDSMSSATTLTTPQEQVDSLIMQIAEENGLEVLDQLSQLPEGASAVGESSVRSQEDQLSRRLAALRN
# B2: ULK3 fused to the VP16 activation domain [human] / CHMP1A fused to the Gal4 DNA-binding domain [human] (parent complex)
# chain 1: MAGPGWGPPRLDGFILTERLGSGTYATVYKAYAKKDTREVVAIKCVAKKSLNKASVENLLTEIEILKGIRHPHIVQLKDFQWDSDNIYLIMEFCAGGDLSRFIHTRRILPEKVARVFMQQLASALQFLHERNISHLDLKPQNILLSSLEKPHLKLADFGFAQHMSPWDEKHVLRGSPLYMAPEMVCQRQYDARVDLWSMGVILYEALFGQPPFASRSFSELEEKIRSNRVIELPLRPLLSRDCRDLLQRLLERDPSRRISFQDFFAHPWVDLEHMPSGESLGRATALVVQAVKKDQEGDSAAALSLYCKALDFFVPALHYEVDAQRKEAIKAKVGQYVSRAEELKAIVSSSNQALLRQGTSARDLLREMARDKPRLLAALEVASAAMAKEEAAGGEQDALDLYQHSLGELLLLLAAEPPGRRRELLHTEVQNLMARAEYLKEQVKMRESRWEADTLDKEGLSESVRSSCTLQ
# chain 2: B1 chain 2
# B3: ULK3 fused to the VP16 activation domain [human] / CHMP1B WT fused to the Gal4 DNA-binding domain [human] (parent complex)
# chain 1: B2 chain 1
# chain 2: B1 chain 1
# B4: CHMP1B WT fused to the Gal4 DNA-binding domain [human] / ULK3 fused to the VP16 activation domain [human] (parent complex)
# chain 1: B1 chain 1
# chain 2: B2 chain 1
# Variants of: B1
# Assay: yeast two-hybrid (β-galactosidase activity); read off a plot
row,Variant,response
1,"chain 1 D194A, chain 1 Q195A, chain 1 V196A",~0.48
2,"chain 1 R191A, chain 1 L192A, chain 1 R193A",~0.54
3,"chain 1 R188A, chain 1 L189A",~0.77
4,"chain 1 L185A, chain 1 S186A, chain 1 Q187A",~0.62

# Variants of: B2
# Assay: as above
row,Variant,response
1,chain 1 V338D,~0.075

# Variants of: B3
# Assay: as above
row,Variant,response
1,chain 1 V338D,~0.061
2,chain 1 M434D,~0.051

# Variants of: B4
# Assay: as above
row,Variant,response
1,"chain 1 R191A, chain 1 L192A, chain 1 R193A",~0.028
